# Assay: soluble on expression in E. coli; label from the status in PepcDB or PDB records
row,Sequence,soluble on expression in E. coli
1,MIITVTAFKGGVGKTTSSIHLAAYLNNKAPTILIDGDLNRSALLWASHEKLDFPVVDEREGLKAARNYEHIVVDTPARPEIEEIRSLARGCDLMILPTSPDALSMGALQANIQTFKQLNIPNFRILMTIVPPKPSTAGTEAKEYLQSLGLPVFKRMITRYAAFPKAALEGCVVRDVKGDRYAGAGWNDYKTVGGEIYGLEHHHHHH,soluble
2,MIIYVSACRHAVCSETVLDVLGNVSEKMKKGIELARSVAHLELCQDKITFQRRYVAIEFDEDELLDGKSSILAVAVSIYFAIVGLRVPSDLMITGSLNLKGTVIPISGLDKTVKVIKLRITLSGSSSA,not soluble
3,MIKDVHRCFVIACIPGKKPYTLALSDFISATAACFKSGIPLKTLKESLENMKETYFRPLKVEEFELLRTWLTLVYKTLKEVLFPLTENKRGICDTDDSIYDEFVKSIVTAIREGYSMEKIRLEQVVTNTKTQPRTEFESALLSQSTRIVVQTVQIAKEFSSEQ,not soluble
4,MIKIELKNKDNQIITGRIDHEKPEAPFVAEGDTLAVLAIKQYLYQVGDKIVVTYTGATPYLMVQLDETLAPSLIYLKEKVWEYQIPLEESARKAFVDTAFHSARHQIMVRQAHTFEKDNYQNLSMNTHDQKEYSGAYPHAYANVETRDDAVFFAKNAIDSKFGNLSHGSYPFASWGINQKKEAQLTIDFGRPVETDWIRLLFRADYPHDSYWEEVTLAFSDGEERVVATTNTTCFQEIKFPMKTTQTLTLKCLRKALDSSPFPALTQIEVFGRNK,soluble
5,MIKINISQNFLVAKGHALFAEKGKDIVCAAISGIIFGGVAWFEPDKIEFTENKLVPSIALKLIDPTPNVAVAFSVITVQLKAIANSYPNHIVINEESYE,soluble
6,MIKKLDVVAAIIECDGKILLAQRPAHADQAGLWEFAGGKVEPGETQPQALIRELREELGIDATPGVYIASHQRDVSGRRIHLHAWHVPAFNGLIRALEHQALAWCTPEEALEYPLAPADIPLLQAFIALRDARLTDSC,not soluble
7,MIKLSPIDKYKQDLTRDDFLFDAAQENAVIHLQRLYDDLQSKPLAVSGFKKVLNRWKKVYKKQEQEPIKGLYFWGGVGRGKTYLVDTFFESLPFNNKMRVHFHRFMHRVHQELKSLSGQSDPLKIIAKKFADETQIICFDEFFVSDITDAMILGTLFEELFAHNVTLVATSNIIPDELYRNGLQRERFLPAIKLINKHTLIVNVDSGVDYRLRTLEQAEIFHYPLDAQADENLKHYFKQLSTDEGKSGQSIEIHNRPLKTVLVSDGVVYFDFSVLCESARSQGDYMEISQLYHTVLMANVKEMGPDSDDTTRRFIALVDEFYERNVKLIMSAELPLDDLYSGGRLAFEFKRCLSRLQEMQSHDYLASEHLPLEHHHHHH,not soluble
8,MIKRPIHLSHDFLAEVIDKEAITLDATMGNGNDTVFLAKSSKKVYAFDIQEEAIAKTKAKLTEQGISNAELILDGHENLEQYVHTPLRAAIFNLGYLPSADKTVITKPHTTIKAIKNVLDILEVGGRLSLMVYYGHDGGKSEKDAVIAFVEQLPQNNFATMLYQPLNQVNTPPFLIMVEKLQSYENEV,not soluble
9,MIKSITIRTSREFEIIDITKEVERVVRESNVKSGIVVVFTRHTTTALTINENESGLKRDIEEILSKLVPKGMNYFHDRIDNNAHSHLRGILLGPSLTIPVEDGRLLLGTWQSILFVELDGPRTREVYVKVCECLEHHHHHH,soluble
10,MILLIGATGNIGLPIVKSLQKKGAEVRLLVHNEKSSAKIQALGQMEIFIGDFRNDSDLRESMKGCSSVFHVVPPFTKDEAEIGYRVIENARHAGVEHIVFNSVLHPQLRKMEHHAQKLLVEEAVIESGLAFNIIQPAMLMQNLLMVWRTIRENGIYPVISSPDKKMSLIDSEDIGEAVANILTDPSLRNATFELAGSDLLTYKEMALIISEELNQPVKVVPVDDKGREELARKQGMSSYAIHAFLKMAKHYDEHGFSGSNPLVLTSILKRPPNSYRDFIRRLIAEDGGI,not soluble
11,MINFHPNVKRAISQAAQKYGLPESFLERVAMIESKGNPNARNSKSSAGGLYQFLDSTAKQYQLNNKFDPFQATDAMARLTKDNTRYLATALGREPSQAELYLAHQQGPAGAVKLIKNPNVPASQLLGRQAVVLNGGNVEATAGDFMNHIYGLYNKTGEASNGRARQSWGNGQSAANEVVPLRGVERFQKAIQGAQARKPLMAYDTPLHENTRFQGQGIDAGALKKSVMSLVDLMRRNKDAQNQQIEMAHQQMMQQPMMTGFSQSSAHPVDLTLLIDPSRRNPVRSYGQQKKQQLQEELLRRTGAYHV,not soluble
12,MIPEQRREQILRQLRKHQVLSVHQLMEMFDCSHMTVRRDIALLEQEGRAHSVTGGVRIASQLHSEPSHQSKAVVELPQKQAMAKLAASLLHADMTVYLDAGTSTLEIVHYIKALSGMTVVTNDFGVAQALMDAPQVTVIHTGGQLDHSNHSCVGGLAVATLRQVVTDVAFISTSSWDLRRGITTPSALKVEVKQVAMQSATQVVLVASSSKYGTFSMYKIAGLEQFDIIISDAALAPAAADGIRKHGVELLLPAQSLEHHHHHH,not soluble
13,MIPVFNITSNRGRLLQQISVGDIWGVGRQWANKLISRGIHTAYDLAMTNPHLLKKCFNAVLMRTAMELQGIACGGLEVLEHHHHHH,not soluble
14,MIQFNQVSKSYEDGTKAVDSLHLEIKKGEFFVLIGPSGCGKTTTMKMINRLIETTEGSILIDGKDIQQYNINELRWDIGYVLQQIALFPHMTIAENIAVVPEMRKWSKEKIKARVDELLQMVGLDPDVYRNRMPDELSGGQKQRIGVVRALAANPKIVLMDEPFSALDPLSREQLQKDIVQLQKKIQKTIVFVTHDMQEALSLGDRICIMKEGKVVQLDTPEGIIHNPKNEFVEEFIGNRGRPWYEGKSIEDVLPLDESIRIEGEALSLHSSLQEALVRLRADEVVPVEEKGRYVGALTSRHIVNYIVEQMKERG,not soluble
15,MIQFSINRTLFIHALNTTKRAISTKNAIPILSSIKIEVTSTGVTLTGSNGQISIENTIPVSNENAGLLITSPGAILLEASFFINIISSLPDISINVKEIEQHQVVLTSGKSEITLKGKDVDQYPRLQEVSTENPLILKTKLLKSIIAETAFAASLQESRPILTGVHIVLSNHKDFKAVATDSHRMSQRLITLDNTSADFMVVLPSKSLREFSAVFTDDIETVEVFFSPSQILFRSEHISFYTRLLEGNYPDTDRLLMTEFETEVVFNTQSLRHAMERAFLISNATQNGTVKLEITQNHISAHVNSPEVGKVNEDLDIVSQSGSDLTISFNPTYLIESLKAIKSETVKIHFLSPVRPFTLTPGDEEESFIQLITPVRTN,soluble
16,MIRAFLVVALASVAVFSAPIPEVPQNFDDIPAEYKGLIPAEVAEHLKAITAEEKAALKELAQNHKEYKTEEEFKAALKEKSPSLYEKAGKLEALLTAKFEKLDATAQALVKKIIAKGRELHQQYLAGDKPTLDSLKELAKGYIAEYKALSDDAKATITAEFPILTGFFQNEKIQAIVGQYVN,not soluble
17,MIREAQRSELPAILELWLESTTWGHPFIKANYWRDCIPLVRDAYLANAQNWVWEEDGKLLGFVSIMEGRFLAAMFVAPKAVRRGIGKALMQYVQQRYPHLMLEVYQKNQPAIDFYRAQGFHIVDCAWQDETQLPTWIMSWPVVQTL,not soluble
18,MIRELVTTAAITGAAIGGAPVAGADPQRYDGDVPGMNYDASLGAPCSSWERFIFGRGPSGQAEACHFPPPNQFPPAETGYWVISYPLYGVQQVGAPCPKPQAAAQSPDGLPMLCLGARGWQPGWFTGAGFFPPEP,soluble
19,MISAQSLTRPQLRRQLRKARRVLTRSQQRAAARGLYQQLAQHPLFRRARHVSLYLPMDGEIDPRLLLREAQRRGKATYLPVLNAWPRTRMVFQRVRPGEKFIPNRFRIPEPRINRTKQRPVWALDLVLMPLVGFDDEGGRLGMGGGFYDRSLAYLARRKTWRKPALLGLAHECQKVDRLAQAIWDVPLQGTVSDKQWYLTQRLLEHHHHHH,not soluble
20,MISILRRGLLVLLAAFPLLALAVQTPHEVVQSTTNELLGDLKANKEQYKSNPNAFYDSLNRILGPVVDADGISRSIMTVKYSRKATPEQMQRFQENFKRSLMQFYGNALLEYNNQGITVDPAKADDGKRASVGMKVTGNNGAVYPVQYTLENIGGEWKVRNVIVNGINIGKLFRDQFADAMQRNGNDLDKTIDGWAGEVAKAKQAADNSPEKSVKLEHHHHHH,soluble
21,MISKDEILEIFDKYNKDEITIATLGSHTSLHILKGAKLEGFSTVCITMKGRDVPYKRFKVADKFIYVDNFSDIKNEEIQEKLRELNSIVVPHGSFIAYCGLDNVENSFLVPMFGNRRILRWESERSLEGKLLREAGLRVPKKYESPEDIDGTVIVKFPGARGGRGYFIASSTEEFYKKAEDLKKRGILTDEDIANAHIEEYVVGTNFCIHYFYSPLKDEVELLGMDKRYESNIDGLVRIPAKDQLEMNINPSYVITGNIPVVIRESLLPQVFEMGDKLVAKAKELVPPGMIGPFCLQSLCNENLELVVFEMSARVDGGTNSFMNGGPYSFLYNGEPLSMGQRIAREIKMALQLDMIDKIIS,soluble
22,MISKRPDIYTQHDKAFSAVSAYVVLNSANERVATVALKFPCDGAGRLYAYVHWVGLEMVRGWAGGYGYDKRSAACASAARRIAIGNLTGDEWTNRRHEATAFVEALEKDSGEDWTRQLEAAGFKVFQAV,not soluble
23,MISLNNRLTTVSRFLKQGTIADIGSDHAYLPIYAIQNHLCECGIAGEVIQGPFQAAVKNVAANHLVERIDVRLGDGLSVIHPEDVIDNITICGMGGPLIAKILKDGQDKLSQHPRLILQSNIQTENLRQTLQQLNYEIIDEIIMEEKGHIYEIVVA,not soluble
24,MISLPIDAVVPALRQALGAQHQAVLEAPPGAGKTTRVPLALLDEPWLAGQRILMLEPRRLAARAAAERLAAELGEKVGETVGYRIRLESRVGPKTRIEVVTEGILARRLQDDPALDGVGLVIFDEFHERSLDADLALALTLNGRELLRDEPPLKVLVMSATLEGERLAALLGEAPVVRSEGRMFPVDIRWGRPAQPGEFIEPRVQQAVLQALAEESGSVLVFLPGQAEIRRVHEGLREALGGRPEVLLCPLHGELDLAAQRAAIEPASRGTRKVVLATNIAETSLTIDGVRVVIDAGLARVPRFDPGSGMTRLETQRISRASATQRAGRAGRLEPGVCYRLWSESQHEQLPAYGTAEILQADLAGLALQLARWGVAPEELAWLDAPPAAAYAQARELLGRLGALNASGALSAHGQAMAELPTHPRIAHLLLRGQALGLGELACDVAALLGERDIQRGGGADLHSRLALLAGEARTGASRGAVQRARQLARQFRGYLRGAASEAVVDPGHPRWLGCLLAFAYPDRIARQRRAGGGDYRLANGRAAQFGEPDSLMKQPWLVIADLGSRQGQREERIYLAAELDPRLFDTVLAEQVSQRDELQWDEREGVLRAERQRRVGELVLSSEALPGLDEAARSQALLGLVRRKGLELLPWTPELRQWQARIGLLRRLDLEDKGESEWPDVSDAALLERLEEWLPAYLGKVTRLAHFANLDLASILAGLLPWPLPQRLDEWAPKTLEVPSGSRIRLDYSETPPILAVRLQELFGLGDTPRIAQGRLAVKLHLLSPAHRPVQVTQDLANFWRSTYAEVRKDLKGRYPKHYWPDDPLVAEATARAKPR,not soluble

# Source: the DeepSol protein solubility set
